Results from patent publication US20140087995A1 (published 2014).
Numbered stars: 1 amine (or outer) side, 2 acyl side, 3 side chain; on linkers, the order of the positions; unused ones are H or OH. Bridge positions count the residues as written; N and C are the ends. Side chains are listed from the residue outwards. Ends that are not written are not given here. * marks the point of attachment. C20 diacid = O=C(O)CCCCCCCCCCCCCCCCCCC(=O)*; γGlu = O=C(O)[C@H](CCC(=O)[*:2])N[*:1]; AEEA = NCCOCCOCC(=O)O

T1: rat calcitonin receptor (rat, UniProt P32214 25-516)
T1 construct: whole, on cells; also called rCTR; rat calcitonin (a) receptor
T1 sequence (looked up): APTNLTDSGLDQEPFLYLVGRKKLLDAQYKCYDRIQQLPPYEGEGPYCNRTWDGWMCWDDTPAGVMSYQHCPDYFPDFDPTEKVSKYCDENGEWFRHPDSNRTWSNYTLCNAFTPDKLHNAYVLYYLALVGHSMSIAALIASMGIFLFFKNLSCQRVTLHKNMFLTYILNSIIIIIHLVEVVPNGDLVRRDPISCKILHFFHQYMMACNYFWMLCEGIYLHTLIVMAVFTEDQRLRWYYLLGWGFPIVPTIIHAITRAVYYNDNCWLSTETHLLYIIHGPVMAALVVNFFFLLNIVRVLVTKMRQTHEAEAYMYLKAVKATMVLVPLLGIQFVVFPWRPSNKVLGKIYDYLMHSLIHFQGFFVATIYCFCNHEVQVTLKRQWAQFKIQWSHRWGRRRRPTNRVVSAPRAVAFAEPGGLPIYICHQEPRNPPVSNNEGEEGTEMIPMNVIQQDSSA

T2: rat amylin receptor (rat calcitonin receptor + rat RAMP 3) (rat, UniProt P32214 25-516; Q9JJ73 23-147)
T2 construct: whole, on cells; also called rAmylin-R; rat amylin 3(a) receptor
T2 sequence (looked up) 1: T1 sequence (looked up)
T2 sequence (looked up) 2: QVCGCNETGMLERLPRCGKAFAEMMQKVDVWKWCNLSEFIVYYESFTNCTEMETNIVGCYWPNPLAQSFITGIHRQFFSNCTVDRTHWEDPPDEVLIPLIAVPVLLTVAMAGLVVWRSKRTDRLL

T3: human calcitonin receptor (human, UniProt P30988 25-474)
T3 construct: whole, on cells; also called hCTR; hCT
T3 sequence (looked up): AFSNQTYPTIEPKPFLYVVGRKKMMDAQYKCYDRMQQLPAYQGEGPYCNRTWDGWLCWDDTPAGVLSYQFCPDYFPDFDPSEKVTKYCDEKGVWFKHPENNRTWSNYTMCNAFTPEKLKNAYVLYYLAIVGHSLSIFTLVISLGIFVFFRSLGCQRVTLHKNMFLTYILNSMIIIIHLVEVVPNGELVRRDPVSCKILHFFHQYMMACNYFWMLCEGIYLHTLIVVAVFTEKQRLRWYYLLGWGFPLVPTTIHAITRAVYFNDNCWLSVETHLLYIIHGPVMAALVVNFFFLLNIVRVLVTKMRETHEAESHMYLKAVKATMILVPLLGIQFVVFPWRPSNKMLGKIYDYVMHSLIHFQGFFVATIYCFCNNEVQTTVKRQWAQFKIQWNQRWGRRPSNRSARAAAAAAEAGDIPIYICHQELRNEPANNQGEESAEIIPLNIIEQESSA

B1: N^ε1-[2-[2-[2-[[(4S)-4-carboxy-4-(19-carboxynonadecanoylamino)butanoyl]amino]ethoxy]ethoxy]acetyl]-[Arg17,Pro21,Pro27,Arg34]-h-amylin (peptide)
peptide: K([AEEA-γGlu-C20 diacid])CNTATCATQRLANFLRHSSPNFGAIPSSTNVGRNTY-NH2
modifications: disulfide 2-7; N-terminus assumed
SMILES: CC[C@H](C)[C@H](NC(=O)[C@H](C)NC(=O)CNC(=O)[C@H](Cc1ccccc1)NC(=O)[C@H](CC(N)=O)NC(=O)[C@@H]1CCCN1C(=O)[C@H](CO)NC(=O)[C@H](CO)NC(=O)[C@H](Cc1c[nH]cn1)NC(=O)[C@H](CCCNC(=N)N)NC(=O)[C@H](CC(C)C)NC(=O)[C@H](Cc1ccccc1)NC(=O)[C@H](CC(N)=O)NC(=O)[C@H](C)NC(=O)[C@H](CC(C)C)NC(=O)[C@H](CCCNC(=N)N)NC(=O)[C@H](CCC(N)=O)NC(=O)[C@@H](NC(=O)[C@H](C)NC(=O)[C@@H]1CSSC[C@H](NC(=O)[C@@H](N)CCCCNC(=O)COCCOCCNC(=O)CC[C@H](NC(=O)CCCCCCCCCCCCCCCCCCC(=O)O)C(=O)O)C(=O)N[C@@H](CC(N)=O)C(=O)N[C@@H]([C@@H](C)O)C(=O)N[C@@H](C)C(=O)N[C@@H]([C@@H](C)O)C(=O)N1)[C@@H](C)O)C(=O)N1CCC[C@H]1C(=O)N[C@@H](CO)C(=O)N[C@@H](CO)C(=O)N[C@H](C(=O)N[C@@H](CC(N)=O)C(=O)N[C@H](C(=O)NCC(=O)N[C@@H](CCCNC(=N)N)C(=O)N[C@@H](CC(N)=O)C(=O)N[C@H](C(=O)N[C@@H](Cc1ccc(O)cc1)C(N)=O)[C@@H](C)O)C(C)C)[C@@H](C)O
notes: synthetic analogue of human amylin; also called compound 78
B2: N^ε1-[2-[2-[2-[[(4S)-4-carboxy-4-(19-carboxynonadecanoylamino)butanoyl]amino]ethoxy]ethoxy]acetyl]-[Arg17,Pro21,Pro27,Pro28,Pro31]-h-amylin (peptide)
peptide: K([AEEA-γGlu-C20 diacid])CNTATCATQRLANFLRHSSPNFGAIPPSTPVGSNTY-NH2
modifications: disulfide 2-7
notes: synthetic analogue of human amylin; also called compound 53
B3: N^ε1-[2-[2-[2-[[(4S)-4-carboxy-4-(19-carboxynonadecanoylamino)butanoyl]amino]ethoxy]ethoxy]acetyl]-[Arg17,Pro21,Pro27,Pro29,Pro31]-h-amylin (peptide)
peptide: K([AEEA-γGlu-C20 diacid])CNTATCATQRLANFLRHSSPNFGAIPSPTPVGSNTY-NH2
modifications: disulfide 2-7; N-terminus assumed
SMILES: CC[C@H](C)[C@H](NC(=O)[C@H](C)NC(=O)CNC(=O)[C@H](Cc1ccccc1)NC(=O)[C@H](CC(N)=O)NC(=O)[C@@H]1CCCN1C(=O)[C@H](CO)NC(=O)[C@H](CO)NC(=O)[C@H](Cc1c[nH]cn1)NC(=O)[C@H](CCCNC(=N)N)NC(=O)[C@H](CC(C)C)NC(=O)[C@H](Cc1ccccc1)NC(=O)[C@H](CC(N)=O)NC(=O)[C@H](C)NC(=O)[C@H](CC(C)C)NC(=O)[C@H](CCCNC(=N)N)NC(=O)[C@H](CCC(N)=O)NC(=O)[C@@H](NC(=O)[C@H](C)NC(=O)[C@@H]1CSSC[C@H](NC(=O)[C@@H](N)CCCCNC(=O)COCCOCCNC(=O)CC[C@H](NC(=O)CCCCCCCCCCCCCCCCCCC(=O)O)C(=O)O)C(=O)N[C@@H](CC(N)=O)C(=O)N[C@@H]([C@@H](C)O)C(=O)N[C@@H](C)C(=O)N[C@@H]([C@@H](C)O)C(=O)N1)[C@@H](C)O)C(=O)N1CCC[C@H]1C(=O)N[C@@H](CO)C(=O)N1CCC[C@H]1C(=O)N[C@H](C(=O)N1CCC[C@H]1C(=O)N[C@H](C(=O)NCC(=O)N[C@@H](CO)C(=O)N[C@@H](CC(N)=O)C(=O)N[C@H](C(=O)N[C@@H](Cc1ccc(O)cc1)C(N)=O)[C@@H](C)O)C(C)C)[C@@H](C)O
notes: synthetic analogue of human amylin; also called compound 54
B4: N^ε1-[2-[2-[2-[[(4S)-4-carboxy-4-(19-carboxynonadecanoylamino)butanoyl]amino]ethoxy]ethoxy]acetyl]-[Arg17,Pro21,Pro27,His34]-h-amylin (peptide)
peptide: K([AEEA-γGlu-C20 diacid])CNTATCATQRLANFLRHSSPNFGAIPSSTNVGHNTY-NH2
modifications: disulfide 2-7; N-terminus assumed
SMILES: CC[C@H](C)[C@H](NC(=O)[C@H](C)NC(=O)CNC(=O)[C@H](Cc1ccccc1)NC(=O)[C@H](CC(N)=O)NC(=O)[C@@H]1CCCN1C(=O)[C@H](CO)NC(=O)[C@H](CO)NC(=O)[C@H](Cc1c[nH]cn1)NC(=O)[C@H](CCCNC(=N)N)NC(=O)[C@H](CC(C)C)NC(=O)[C@H](Cc1ccccc1)NC(=O)[C@H](CC(N)=O)NC(=O)[C@H](C)NC(=O)[C@H](CC(C)C)NC(=O)[C@H](CCCNC(=N)N)NC(=O)[C@H](CCC(N)=O)NC(=O)[C@@H](NC(=O)[C@H](C)NC(=O)[C@@H]1CSSC[C@H](NC(=O)[C@@H](N)CCCCNC(=O)COCCOCCNC(=O)CC[C@H](NC(=O)CCCCCCCCCCCCCCCCCCC(=O)O)C(=O)O)C(=O)N[C@@H](CC(N)=O)C(=O)N[C@@H]([C@@H](C)O)C(=O)N[C@@H](C)C(=O)N[C@@H]([C@@H](C)O)C(=O)N1)[C@@H](C)O)C(=O)N1CCC[C@H]1C(=O)N[C@@H](CO)C(=O)N[C@@H](CO)C(=O)N[C@H](C(=O)N[C@@H](CC(N)=O)C(=O)N[C@H](C(=O)NCC(=O)N[C@@H](Cc1c[nH]cn1)C(=O)N[C@@H](CC(N)=O)C(=O)N[C@H](C(=O)N[C@@H](Cc1ccc(O)cc1)C(N)=O)[C@@H](C)O)C(C)C)[C@@H](C)O
notes: synthetic analogue of human amylin; also called compound 76
B5: N^ε1-[2-[2-[2-[[(4S)-4-carboxy-4-(19-carboxynonadecanoylamino)butanoyl]amino]ethoxy]ethoxy]acetyl]-[Arg17,Pro21,Pro27,Pro28,Pro34]-h-amylin (peptide)
peptide: K([AEEA-γGlu-C20 diacid])CNTATCATQRLANFLRHSSPNFGAIPPSTNVGPNTY-NH2
modifications: disulfide 2-7; N-terminus assumed
SMILES: CC[C@H](C)[C@H](NC(=O)[C@H](C)NC(=O)CNC(=O)[C@H](Cc1ccccc1)NC(=O)[C@H](CC(N)=O)NC(=O)[C@@H]1CCCN1C(=O)[C@H](CO)NC(=O)[C@H](CO)NC(=O)[C@H](Cc1c[nH]cn1)NC(=O)[C@H](CCCNC(=N)N)NC(=O)[C@H](CC(C)C)NC(=O)[C@H](Cc1ccccc1)NC(=O)[C@H](CC(N)=O)NC(=O)[C@H](C)NC(=O)[C@H](CC(C)C)NC(=O)[C@H](CCCNC(=N)N)NC(=O)[C@H](CCC(N)=O)NC(=O)[C@@H](NC(=O)[C@H](C)NC(=O)[C@@H]1CSSC[C@H](NC(=O)[C@@H](N)CCCCNC(=O)COCCOCCNC(=O)CC[C@H](NC(=O)CCCCCCCCCCCCCCCCCCC(=O)O)C(=O)O)C(=O)N[C@@H](CC(N)=O)C(=O)N[C@@H]([C@@H](C)O)C(=O)N[C@@H](C)C(=O)N[C@@H]([C@@H](C)O)C(=O)N1)[C@@H](C)O)C(=O)N1CCC[C@H]1C(=O)N1CCC[C@H]1C(=O)N[C@@H](CO)C(=O)N[C@H](C(=O)N[C@@H](CC(N)=O)C(=O)N[C@H](C(=O)NCC(=O)N1CCC[C@H]1C(=O)N[C@@H](CC(N)=O)C(=O)N[C@H](C(=O)N[C@@H](Cc1ccc(O)cc1)C(N)=O)[C@@H](C)O)C(C)C)[C@@H](C)O
notes: synthetic analogue of human amylin; also called compound 55

These binders were tested against T1, rat calcitonin receptor (assay: ratio of binding IC50s: rat calcitonin receptor over rat amylin receptor (reference)).

First: B1
Second: B2
The “Ratio rCT/rAmylin binding” value of the first is lower: 69.9 for the first, 130 for the second.

First: B3
Second: B4
The “Ratio rCT/rAmylin binding” value of the first is higher: 179 for the first, 56.8 for the second.

With B5 the “Ratio rCT/rAmylin binding” value was 77.2.

These binders were tested against T1, rat calcitonin receptor (assay: SPA competition with 125I-calcitonin, membranes of BHK cells with rat calcitonin receptor (Assay VIII)).

First: B1
Second: B2
The IC50 of the first is 8.3-fold higher: 90.6 nM for the first, 10.9 nM for the second. The second is the more potent here.

Going from B3 to B4, the IC50 rises from 8.79 nM to 38.9 nM (4.4-fold).

B5 showed an IC50 of 6.25 nM.

What follows are binders tested against T2, rat amylin receptor (rat calcitonin …) (assay: SPA competition with 125I-rat amylin, membranes of BHK cells with rat calcitonin receptor + rat RAMP3 (Assay VI)).

Compared with B1, B2 is 15-fold lower in IC50: 1.3 nM for the first, 0.084 nM for the second. The second is the more potent here.

First: B3
Second: B4
The IC50 of the first is 14-fold lower: 0.049 nM for the first, 0.686 nM for the second. The first is the more potent here.

B5 was tested, and the IC50 was 0.081 nM.

Each binder was assayed against T3, human calcitonin receptor (assay: ratio of binding IC50s: human calcitonin receptor over human amylin receptor (reference)).
Protocol: The resulting pellet was resuspended, homogenized and centrifuged (20.000 rpm, 15 min) in a buffer containing 20 mM Na-HEPES and 0.1 mM EDTA (pH 7.4, buffer 2). The resulting pellet was resuspended in buffer 2 and protein concentration was measured (BCA protein Assay, Pierce). The homogenate was kept cold during the whole procedure. The membranes were kept at −80° C. until use. The assay was performed in a 384 well Optiplate (PerkinElmer) in a total volume of 40 ul. Membranes were mixed with SPA beads. Final concentration of membranes 35 ng/μL final and SPA beads was 0.05 mg/well. Test-compounds were dissolved in DMSO and further diluted in assay buffer (50 mM Hepes, pH 7.4, 1 mM CaCl2, 5 mM MgCl₂, 0.1% OA and 0.02% Tween20). […] The final mixture was incubated with shaking at 400 rpm for 120 min at 25° C. prior to centrifugation (1500 rpm, 10 min). Samples were analyzed on TopCounter™ (Packard). The IC₅₀ was calculated using (one site binding competition analysis) GraphPad Prism5 as a measure of receptor affinity.
Membranes were prepared in the following way; the cells were rinsed with PBS and incubated with Versene for approximately 5 min before harvesting. The cells were flushed with PBS and the cell-suspension was centrifuged for 5 min at 1000 rpm. Cells were homogenized (Ultrathurrax) in a buffer containing 20 mM Na-HEPES and 10 mM EDTA (pH 7.4) and centrifuged at 20.000 rpm for 15 min. The resulting pellet was resuspended, homogenized and centrifuged (20.000 rpm, 15 min) in a buffer containing 20 mM Na-HEPES and 0.1 mM EDTA (pH 7.4, buffer 2). The resulting pellet was resuspended in buffer 2 and protein concentration was measured (BCA protein Assay, Pierce). The homogenate was kept cold during the whole procedure. The membranes were kept at −80° C. until use. Assay was performed in a 384 well Optiplate (PerkinElmer) in a total volume of 40 ul. Membranes were mixed with SPA beads.

Going from B1 to B2, the “Ratio hCT/hAmylin binding” value rises from 60.7 to 104.

Compared with B3, B4 is lower in “Ratio hCT/hAmylin binding” value: 146 for the first, 80 for the second.

For B5, the “Ratio hCT/hAmylin binding” value was 51.8.
